Positions count from the first letter of the chain named. Starred links: 1 amine or outer side, 2 acyl side, 3 side chain; linkers in the order of their positions; H or OH if unused. Non-standard residues stand in square brackets, D forms with d. Groups on a side chain read outwards from the residue. No end group written: not given here. *: point of attachment. C20 diacid = O=C(O)CCCCCCCCCCCCCCCCCCC(=O)*; C18 diacid = O=C(O)CCCCCCCCCCCCCCCCC(=O)*; γGlu = O=C(O)[C@H](CCC(=O)[*:2])N[*:1]; AEEA = NCCOCCOCC(=O)O; Aib = CC(C)(N)C(=O)O
T1: human GIP receptor (human, UniProt P48546 22-466)
T1 sequence (looked up): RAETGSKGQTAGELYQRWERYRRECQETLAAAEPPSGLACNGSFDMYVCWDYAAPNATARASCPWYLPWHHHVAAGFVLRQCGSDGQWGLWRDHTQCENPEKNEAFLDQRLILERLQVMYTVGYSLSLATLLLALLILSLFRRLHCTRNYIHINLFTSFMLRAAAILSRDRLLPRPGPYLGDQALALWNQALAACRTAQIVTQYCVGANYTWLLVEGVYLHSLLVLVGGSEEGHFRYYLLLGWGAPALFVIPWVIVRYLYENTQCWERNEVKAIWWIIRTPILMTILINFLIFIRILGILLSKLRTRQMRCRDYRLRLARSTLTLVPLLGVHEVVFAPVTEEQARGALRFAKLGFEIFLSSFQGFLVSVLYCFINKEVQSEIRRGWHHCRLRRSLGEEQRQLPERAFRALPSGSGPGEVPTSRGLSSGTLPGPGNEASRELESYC

T2: human neuropeptide Y2 receptor (human, UniProt P49146 1-381)
T2 sequence (looked up): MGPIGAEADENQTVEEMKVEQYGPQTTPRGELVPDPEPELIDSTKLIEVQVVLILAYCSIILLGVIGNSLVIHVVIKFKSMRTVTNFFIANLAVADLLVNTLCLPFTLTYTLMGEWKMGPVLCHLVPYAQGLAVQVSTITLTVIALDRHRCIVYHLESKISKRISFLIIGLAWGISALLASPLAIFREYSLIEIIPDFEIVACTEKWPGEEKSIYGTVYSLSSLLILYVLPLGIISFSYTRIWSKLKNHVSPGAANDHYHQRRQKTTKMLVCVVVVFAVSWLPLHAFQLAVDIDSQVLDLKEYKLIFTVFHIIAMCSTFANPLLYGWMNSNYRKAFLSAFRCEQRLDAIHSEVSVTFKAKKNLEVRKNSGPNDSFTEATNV

T3: NPY2 receptor (human (printed as hNPY2R), UniProt P49146 1-381)
T3 sequence (looked up): T2 sequence (looked up)

T4: GIP receptor (human (printed as hGIPR), UniProt P48546 22-466)
T4 sequence (looked up): T1 sequence (looked up)

B1: Compound 167 (peptide)
peptide: YXEGTFTSDYSIXLEKQAQXAFVQWLIKGGPSSGASLRHYYNWLTRQRY
modifications: Aib at 2, 13, 20; K28 side chain: C18DA-gGlu-gGlu-gGlu-gGlu-gGlu-OEG-OEG; C-terminal NH2
B2: Compound 168 (peptide)
peptide: B1 peptide with Q24E, S32R
modifications: Aib at 2, 13, 20; K28 side chain: C20DA-gGlu-gGlu-gGlu-gGlu-gGlu-gGlu-eLys; C-terminal NH2
B3: Compound 162 (peptide)
peptide: B1 peptide with S32E, S33E
modifications: Aib at 2, 13, 20; K28 side chain: C18DA-gGlu-gGlu-gGlu-gGlu-gGlu-AHX; C-terminal NH2
B4: Compound 156 (peptide)
peptide: Y[Aib]EGTFTSDYSI[Aib]LEKQAE[Aib]AFVQWLIK([AEEA-AEEA-γGlu-γGlu-γGlu-γGlu-C18 diacid])GGPSEGASLRHYYNWLTRQRY-NH2
B5: Compound 157 (peptide)
peptide: Y[Aib]EGTFTSDYSI[Aib]LEKQAQ[Aib]EFVQWLIK([AEEA-AEEA-Glu-Glu-Glu-C18 diacid])GGPSEGASLRHYYNWLTRQRY-NH2
B6: Compound 160 (peptide)
peptide: Y[Aib]EGTFTSDYSI[Aib]LEKQAQ[Aib]EFVQWLIK([AEEA-AEEA-γGlu-γGlu-γGlu-C18 diacid])GGPSEGASLRHYYNWLTRQRY-NH2
B7: Compound 165 (peptide)
peptide: Y[Aib]EGTFTSDYSI[Aib]LEKQAQ[Aib]AFVQWLIK([AEEA-AEEA-γGlu-γGlu-Glu-γGlu-C20 diacid])GGPSEPASLRHYYNWLTRQRY-NH2
B8: Compound 164 (peptide)
peptide: Y[Aib]EGTFTSDYSI[Aib]LEKQAQ[Aib]EFVQWLIKGGPSEGASLRHYYNWLTRQRY-NH2
modifications: not fully specified (residue 28)
B9: Compound 174 (peptide)
peptide: Y[Aib]EGTFTSDYSI[Aib]LEKQAE[Aib]AFVQWLIKGGPSEGASLRHYYNWLTRQRY-NH2
modifications: not fully specified (residue 28); also: TFA salt
B10: Compound 173 (peptide)
peptide: Y[Aib]EGTFTSDYSI[Aib]LEKQAQ[Aib]AFVQWLIK([AEEA-AEEA-γGlu-γGlu-γGlu-γGlu-C18 diacid])GGPSEPASLRHYYNWLTRQRY-NH2
modifications: also: TFA salt

Biological target: T1, human GIP receptor
Assay: cell-based or functional assay

B1 and B2 are within 1.5-fold of each other in “EC50 CreLuc hGIPR 0.5% hP” value: 0.14 nM for the first, 0.2 nM for the second.

First: B3
Second: B4
The “EC50 CreLuc hGIPR 0.5% hP” value of the first is 1.6-fold higher: 0.25 nM for the first, 0.16 nM for the second.

B5 and B6 are within 1.5-fold of each other in “EC50 CreLuc hGIPR 0.5% hP” value: 0.38 nM for the first, 0.33 nM for the second.

B7 and B8 are within 1.5-fold of each other in “EC50 CreLuc hGIPR 0.5% hP” value: 0.33 nM for the first, 0.25 nM for the second.

Going from B1 to B2, the “EC50 CreLuc hGIPR 100% hP” value rises from 0.49 nM to 1.5 nM (3.1-fold).

Compared with B3, B4 is 2.2-fold lower in “EC50 CreLuc hGIPR 100% hP” value: 1.61 nM for the first, 0.72 nM for the second.

Compared with B5, B6 is 1.7-fold lower in “EC50 CreLuc hGIPR 100% hP” value: 1.58 nM for the first, 0.91 nM for the second.

B7 and B8 are within 1.5-fold of each other in “EC50 CreLuc hGIPR 100% hP” value: 1.88 nM for the first, 1.26 nM for the second.

Biological target: T2, human neuropeptide Y2 receptor
Assay: cell-based or functional assay

Going from B1 to B2, the “EC50 CreLuc hNPY2R 0.5% hP” value falls from 10.5 nM to 6.05 nM (1.7-fold).

Compared with B3, B4 is 1.9-fold lower in “EC50 CreLuc hNPY2R 0.5% hP” value: 25.8 nM for the first, 13.5 nM for the second.

Going from B5 to B6, the “EC50 CreLuc hNPY2R 0.5% hP” value falls from 23.6 nM to 8.23 nM (2.9-fold).

Going from B7 to B8, the “EC50 CreLuc hNPY2R 0.5% hP” value rises from 8.91 nM to 24 nM (2.7-fold).

B1 and B2 are within 1.5-fold of each other in “EC50 CreLuc hNPY2R 100% hP” value: 26.5 nM for the first, 36.1 nM for the second.

First: B3
Second: B4
The “EC50 CreLuc hNPY2R 100% hP” value of the first is 3.5-fold higher: 92.6 nM for the first, 26.5 nM for the second.

Compared with B5, B6 is 4-fold lower in “EC50 CreLuc hNPY2R 100% hP” value: 86.9 nM for the first, 21.9 nM for the second.

B7 and B8 are within 1.5-fold of each other in “EC50 CreLuc hNPY2R 100% hP” value: 36 nM for the first, 50.1 nM for the second.

Biological target: human GLP-1 receptor (human, UniProt P43220 24-463)
Assay: cell-based or functional assay

Compared with B1, B2 is 2.8-fold higher in “EC50 CreLuc hGLP1R 0.5% hP” value: 0.04 nM for the first, 0.11 nM for the second.

B3 and B4 are within 1.5-fold of each other in “EC50 CreLuc hGLP1R 0.5% hP” value: 0.2 nM for the first, 0.18 nM for the second.

B5 and B6 are within 1.5-fold of each other in “EC50 CreLuc hGLP1R 0.5% hP” value: 0.35 nM for the first, 0.3 nM for the second.

Compared with B7, B8 is 2.2-fold higher in “EC50 CreLuc hGLP1R 0.5% hP” value: 0.13 nM for the first, 0.28 nM for the second.

Compared with B1, B2 is 4.4-fold higher in “EC50 CreLuc hGLP1R 100% hP” value: 0.82 nM for the first, 3.59 nM for the second.

B3 and B4 are within 1.5-fold of each other in “EC50 CreLuc hGLP1R 100% hP” value: 8.2 nM for the first, 6.5 nM for the second.

B5 and B6 are within 1.5-fold of each other in “EC50 CreLuc hGLP1R 100% hP” value: 9.05 nM for the first, 6.31 nM for the second.

B7 and B8 are within 1.5-fold of each other in “EC50 CreLuc hGLP1R 100% hP” value: 4.81 nM for the first, 6.48 nM for the second.

Biological target: T3, NPY2 receptor
Assay: cell-based or functional assay

B9 and B10 are within 1.5-fold of each other in “EC50 hNPY2R 0.5% hP (CreLuc)” value: 11.5 nM for the first, 12.4 nM for the second.

First: B9
Second: B10
The “EC50 hNPY2R 100% hP (CreLuc)” value of the first is 1.6-fold higher: 39.2 nM for the first, 24.9 nM for the second.

Biological target: T4, GIP receptor
Assay: cell-based or functional assay

Going from B9 to B10, the “EC50 hGIPR 0.5% hP (CreLuc)” value rises from 0.17 nM to 0.27 nM (1.6-fold).

B9 and B10 are within 1.5-fold of each other in “EC50 hGIPR 100% hP (CreLuc)” value: 1.26 nM for the first, 0.94 nM for the second.

Biological target: GLP-1 receptor (human (printed as hGLP1R), UniProt P43220 24-463)
Assay: cell-based or functional assay

First: B9
Second: B10
The “EC50 hGLP1R 0.5% hP (CreLuc)” value of the first is 2-fold higher: 0.22 nM for the first, 0.11 nM for the second.

First: B9
Second: B10
The “EC50 hGLP1R 100% hP (CreLuc)” value of the first is 2.5-fold higher: 7.71 nM for the first, 3.07 nM for the second.
